This is an account of results in paper PMC2588520.

In data set [1] the target is T1, UP1 (proteolytic product of hnRNP A1) (UniProt P09651 1-196). Briefly: EMSA.
In data set [2] the target is T1, UP1 (proteolytic product of hnRNP A1). Briefly: EMSA. This is another data set of the same source.

Where two headings read alike, the source gives them in different places.

T1 sequence (P09651 1-196): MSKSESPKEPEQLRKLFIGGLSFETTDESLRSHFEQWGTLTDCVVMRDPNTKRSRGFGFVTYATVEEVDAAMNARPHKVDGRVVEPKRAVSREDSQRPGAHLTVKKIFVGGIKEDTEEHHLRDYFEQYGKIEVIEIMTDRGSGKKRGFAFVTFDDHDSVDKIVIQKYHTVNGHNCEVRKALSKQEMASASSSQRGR

Regarding UGAGAAGGGCGUAGG (ssRNA) [15-mer telomerase RNA], the binding result in data set [1] and in data set [2] was “binds” throughout.
